The values that follow come from article PMC4699842, “Synthetic prions with novel strain-specified properties” (PLoS Pathogens, 2015).

This data set deals with the molecule itself. In words: thioflavin-T fibrillization assay.

B1: recombinant mouse prion protein residues 23-231 (recMoPrP(23–231)) (natural protein)
chain: not shown
notes: also called recPrP; rec full-length mouse (Mo) PrP
As to B1, the binding result is “binds”.
